According to the supplement of paper PMC7877785:
± gives the uncertainty stated by the source.

Test: self-splicing fitness, log relative to wild type (ln ratio); higher = more splicing; Tetrahymena group I intron in knt gene, E. coli kanamycin selection, DiMSum; sequences stand for … in CUCUCU…GGAGGGAAAAGUUAUCAGGCAUGCACCUGGUAGCUAGUCUUUAAACCAAUAGAUUGCAUCGGUUUAAAAGGCAAGACCGUCAAAUUGCGGGAAAGGGGUCAACAGCCGUUCAGUACCAAGUCUCAGGGGAAACUUUGAGAUGGCCUUGCAAAGGGUAUGGUAAUAAGCUGACGGACAUGGUCCUAACCACGCAGCCAAGUCCUAAGUCAACAGAUCUUCUGUUGAUAUGGAUGCAGUUCACAGACUAAAUGUCGGUCGGGGAAGAUGUAUUCUUCUCAUAAGAUAUAGUCGGACCUCUCCUUAAUGGGAGCUAGCGGAUGAAGUGAUGCAACACUGGAGCCGCUGGGAACUAAUUUGUAUGCGAAAGUAUAUUGAUUAGUUUUGGAGUACUCGUGGUCG
Method in brief: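 The eight P1ex-region nucleotides of an intron in the knt kanamycin-resistance gene on pET-22b(+) were all randomised and the library put into E. coli BL21(DE3). Six replicate transformations were grown overnight at 37°C or 30°C on LB agar with or without 25 μg/mL kanamycin, together with 100 μg/mL carbenicillin, 50 μM IPTG and 0.2% rhamnose. Colonies were pooled and amplicon-sequenced on an Illumina HiSeq 2500. Fitness from DiMSum is the error-weighted combination of wild-type-normalised replicate fold changes, kanamycin over none.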

Row | Sequence | self-splicing fitness (ln) (30 °C) | self-splicing fitness (ln) (37 °C)
1 | AGGCAGCAAUAUUACGUGCC | -2.9 ± 0.26 | -2.73 ± 0.31
2 | AGGCAGCAAUAUUACGUGGG | -2.95 ± 0.095 | -2.97 ± 0.15
3 | AGGCAGCAAUAUUACGUUAC | -3.46 ± 0.2 | -2.55 ± 0.31
4 | AGGCAGCAAUAUUACGUUGA | -2.42 ± 0.11 | -1.25 ± 0.1
5 | AGGCAGCAAUAUUACGUUUU | -1.59 ± 0.065 | -0.435 ± 0.079
6 | AGGGAGCAAUAUUACGAACG | -2.58 ± 0.39 | -1.9 ± 0.36
7 | AGGGAGCAAUAUUACGAAGG | -2.19 ± 0.31 | –
8 | AGGGAGCAAUAUUACGAGAU | -2.75 ± 0.29 | -3.06 ± 0.48
9 | AGGGAGCAAUAUUACGAGGC | -2.51 ± 0.35 | -2.59 ± 0.44
10 | AGGGAGCAAUAUUACGCACU | -3.18 ± 0.4 | -0.0242 ± 0.24
11 | AGGGAGCAAUAUUACGCGCA | -1.71 ± 0.4 | -2.11 ± 0.34
12 | AGGGAGCAAUAUUACGCGGA | -2.2 ± 0.21 | -2.68 ± 0.3
13 | AGGGAGCAAUAUUACGCUGU | -2.11 ± 0.26 | -3.01 ± 0.47
14 | AGGGAGCAAUAUUACGGAAC | -3.01 ± 0.38 | -2.68 ± 0.41
15 | AGGGAGCAAUAUUACGGACC | -2.79 ± 0.36 | -1.37 ± 0.36
16 | AGGGAGCAAUAUUACGGAGA | -2.65 ± 0.4 | -2.69 ± 0.32
17 | AGGGAGCAAUAUUACGGCAA | -3.52 ± 0.48 | -1.8 ± 0.27
18 | AGGGAGCAAUAUUACGGCCU | -2.43 ± 0.22 | -1.41 ± 0.24
19 | AGGGAGCAAUAUUACGGCUA | -2.09 ± 0.21 | -2.17 ± 0.18
20 | AGGGAGCAAUAUUACGGGCA | -3.79 ± 0.43 | -1.46 ± 0.34
21 | AGGGAGCAAUAUUACGGGCU | -3.05 ± 0.27 | -2.49 ± 0.3
22 | AGGGAGCAAUAUUACGGGUC | -4.05 ± 0.3 | -3.12 ± 0.22
23 | AGGGAGCAAUAUUACGGUGC | -4.76 ± 0.45 | -3.06 ± 0.47
24 | AGGGAGCAAUAUUACGUACC | -2.86 ± 0.33 | -1.52 ± 0.29

Row | Sequence | self-splicing fitness (ln) (30 °C) | self-splicing fitness (ln) (37 °C)
25 | AGGGAGCAAUAUUACGUCAG | – | -2.97 ± 0.35
26 | AGGGAGCAAUAUUACGUGAU | -3.34 ± 0.25 | -2.91 ± 0.26
27 | AGGGAGCAAUAUUACGUGUC | -3.95 ± 0.47 | -2.69 ± 0.26
28 | AGGGAGCAAUAUUACGUGUG | -2.78 ± 0.17 | -3.07 ± 0.26
29 | AGGGAGCAAUAUUACGUUAU | -3.84 ± 0.34 | -2.94 ± 0.25
30 | AGGGAGCAAUAUUACGUUCG | -3.18 ± 0.22 | -1.96 ± 0.23
31 | AGGGAGCAAUAUUACGUUCU | -3.19 ± 0.44 | –
32 | AGGUAGCAAUAUUACGACCA | 0.0772 ± 0.018 | 0.199 ± 0.038
33 | AGGUAGCAAUAUUACGACGA | -0.363 ± 0.016 | -0.00769 ± 0.034
34 | AGGUAGCAAUAUUACGAGCG | -0.808 ± 0.014 | -0.435 ± 0.033
35 | AGGUAGCAAUAUUACGAGUG | -2.867 ± 0.019 | -1.58 ± 0.034
36 | AGGUAGCAAUAUUACGAUAC | -2.318 ± 0.021 | -1.16 ± 0.037
37 | AGGUAGCAAUAUUACGAUGC | -1.62 ± 0.017 | -0.828 ± 0.035
38 | AGGUAGCAAUAUUACGCACC | -2.33 ± 0.031 | -1.26 ± 0.042
39 | AGGUAGCAAUAUUACGCGAC | -2.971 ± 0.029 | -1.8 ± 0.04
40 | AGGUAGCAAUAUUACGCUCG | -0.57 ± 0.017 | -0.241 ± 0.036
41 | AGGUAGCAAUAUUACGCUCU | -2.37 ± 0.024 | -1.45 ± 0.038
42 | AGGUAGCAAUAUUACGCUUG | -1.541 ± 0.015 | -1.04 ± 0.034
43 | AGGUAGCAAUAUUACGGAUA | -2.53 ± 0.025 | -1.6 ± 0.036
44 | AGGUAGCAAUAUUACGUAAA | -2.285 ± 0.018 | -1.39 ± 0.034
45 | AGGUAGCAAUAUUACGUAUG | -3.698 ± 0.027 | -2.53 ± 0.038
46 | AGGUAGCAAUAUUACGUCCG | -0.127 ± 0.017 | 0.055 ± 0.036
47 | AGGUAGCAAUAUUACGUCGA | -1.4 ± 0.016 | -0.563 ± 0.033
48 | AGGUAGCAAUAUUACGUGAG | -1.02 ± 0.011 | -0.588 ± 0.032

Row | Sequence | self-splicing fitness (ln) (30 °C) | self-splicing fitness (ln) (37 °C)
49 | AGGUAGCAAUAUUACGUGCG | -0.955 ± 0.014 | -0.358 ± 0.033
50 | AGGUAGCAAUAUUACGUGUA | -2.265 ± 0.017 | -1.31 ± 0.033
51 | AGGUAGCAAUAUUACGUUAA | -2.881 ± 0.025 | -1.91 ± 0.037
52 | AGGUAGCAAUAUUACGUUAG | -3.842 ± 0.029 | -2.87 ± 0.042
53 | AGGUAGCAAUAUUACGUUAU | -3.603 ± 0.026 | -2.75 ± 0.039
54 | AGGUAGCAAUAUUACGUUGA | -2.893 ± 0.022 | -1.61 ± 0.035
55 | AGGUAGCAAUAUUACGUUGU | -3.385 ± 0.02 | -1.95 ± 0.035
56 | AGGUAGCAAUAUUACGUUUA | -2.151 ± 0.019 | -1.33 ± 0.034
57 | AGUAAGCAAUAUUACGACCC | -1.01 ± 0.47 | -0.157 ± 0.35
58 | AGUAAGCAAUAUUACGAGAA | – | -1.21 ± 0.41
59 | AGUAAGCAAUAUUACGAGCA | -0.223 ± 0.1 | -0.349 ± 0.11
60 | AGUAAGCAAUAUUACGAGUG | -3.01 ± 0.27 | -3.04 ± 0.43
61 | AGUAAGCAAUAUUACGAUGC | -2.58 ± 0.19 | -1.67 ± 0.15
62 | AGUAAGCAAUAUUACGCAAA | -2.45 ± 0.35 | -1.46 ± 0.25
63 | AGUAAGCAAUAUUACGCCAG | -3.63 ± 0.33 | -1.58 ± 0.29
64 | AGUAAGCAAUAUUACGCCCU | -0.35 ± 0.17 | -0.62 ± 0.16
65 | AGUAAGCAAUAUUACGGAUA | -2.85 ± 0.28 | -1.69 ± 0.21
66 | AGUAAGCAAUAUUACGGGCA | -0.89 ± 0.15 | -0.468 ± 0.19
67 | AGUAAGCAAUAUUACGGUGC | -4.4 ± 0.46 | -1.37 ± 0.17
68 | AGUAAGCAAUAUUACGUAUU | -2.89 ± 0.12 | -3.05 ± 0.19
69 | AGUAAGCAAUAUUACGUCAU | -2.97 ± 0.23 | -2.12 ± 0.19
70 | AGUAAGCAAUAUUACGUGAA | -3.24 ± 0.15 | -1.68 ± 0.13
71 | AGUAAGCAAUAUUACGUGUA | -2.16 ± 0.12 | -1.8 ± 0.13
72 | AGUAAGCAAUAUUACGUUCC | -1.85 ± 0.16 | -0.345 ± 0.13

Row | Sequence | self-splicing fitness (ln) (30 °C) | self-splicing fitness (ln) (37 °C)
73 | AGUCAGCAAUAUUACGAAUG | -1.62 ± 0.09 | -0.853 ± 0.11
74 | AGUCAGCAAUAUUACGAGGC | -2.81 ± 0.31 | -0.606 ± 0.31
75 | AGUCAGCAAUAUUACGAUAG | -1.12 ± 0.14 | -2.32 ± 0.23
76 | AGUCAGCAAUAUUACGAUGC | -1.04 ± 0.097 | -0.00334 ± 0.11
77 | AGUCAGCAAUAUUACGCAAA | -1.62 ± 0.11 | -1.01 ± 0.15
78 | AGUCAGCAAUAUUACGCAAG | -2.69 ± 0.26 | -1.28 ± 0.29
79 | AGUCAGCAAUAUUACGCGCU | -3.02 ± 0.14 | -1.86 ± 0.21
80 | AGUCAGCAAUAUUACGCUAU | -0.623 ± 0.1 | -0.137 ± 0.11
81 | AGUCAGCAAUAUUACGCUGG | -3.87 ± 0.23 | -2.71 ± 0.23
82 | AGUCAGCAAUAUUACGCUUA | -0.891 ± 0.12 | 0.278 ± 0.14
83 | AGUCAGCAAUAUUACGCUUC | -2.35 ± 0.2 | -1.79 ± 0.21
84 | AGUCAGCAAUAUUACGGACU | -2.86 ± 0.27 | -2.27 ± 0.29
85 | AGUCAGCAAUAUUACGGAUG | -1.36 ± 0.054 | 0.106 ± 0.069
86 | AGUCAGCAAUAUUACGGGUC | -1.27 ± 0.11 | -1.43 ± 0.15
87 | AGUCAGCAAUAUUACGGUAG | -3.46 ± 0.15 | -2.76 ± 0.21
88 | AGUCAGCAAUAUUACGUAGC | -2.97 ± 0.13 | -0.778 ± 0.097
89 | AGUCAGCAAUAUUACGUCCG | -2.14 ± 0.12 | -1.29 ± 0.18
90 | AGUCAGCAAUAUUACGUUAU | -1.25 ± 0.099 | -0.0312 ± 0.11
91 | AGUCAGCAAUAUUACGUUCC | -1.13 ± 0.1 | -0.187 ± 0.12
92 | AGUGAGCAAUAUUACGAAUG | -3.4 ± 0.36 | -1.58 ± 0.3
93 | AGUGAGCAAUAUUACGAGAG | -2.1 ± 0.26 | -2.36 ± 0.29
94 | AGUGAGCAAUAUUACGAGGA | -2.48 ± 0.32 | -3.09 ± 0.35
95 | AGUGAGCAAUAUUACGAGGG | -3.75 ± 0.24 | -2.13 ± 0.35
96 | AGUGAGCAAUAUUACGAUAC | -3.02 ± 0.22 | -2.47 ± 0.34
